{"source": "the supplement of paper PMC10724198", "note": "± gives the standard deviation of the averaged measurements.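 Note: PSI is a weighted mean of sequencing reads over stability bins, variants kept only with over 10 reads, mCherry proximal and sfGFP distal, peptide attached via GGGS linker.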"}
{"system": "Saccharomyces cerevisiae", "assay": "protein stability index of tFT-peptide fusion (C-terminal peptide) (PSI (0-1 scale)); higher = more stable (slower turnover)", "conditions": "genetic background: wild type; temperature: 30 C"}
{"sequence": "RRATCYGLGPTM", "protein stability index": "0.681 ± 0.013"}
{"sequence": "RRERKARREAPR", "protein stability index": "0.682 ± 0.042"}
{"sequence": "RRESTRSRWYEG", "protein stability index": "0.762 ± 0.14"}
{"sequence": "RRGAVGAAGLKG", "protein stability index": "0.68884 ± 7e-05"}
{"sequence": "RRGEVTQTCGCE", "protein stability index": "0.549 ± 0.054"}
{"sequence": "RRGKGERSQFAP", "protein stability index": "0.647 ± 0.017"}
{"sequence": "RRLNTRQERSNK", "protein stability index": "0.72 ± 0.032"}
{"sequence": "RRLRCNDCPFVV", "protein stability index": "0.755 ± 0.085"}
{"sequence": "RRLSGGNLLLLA", "protein stability index": "0.5914 ± 0.0018"}
{"sequence": "RRLVLPFSRLLR", "protein stability index": "0.656 ± 0.019"}
{"sequence": "RRNGVVGRLGGV", "protein stability index": "0.678 ± 0.032"}
{"sequence": "RRNLSVSKRKWP", "protein stability index": "0.689 ± 0.014"}
{"sequence": "RRPPVFCIPLFS", "protein stability index": "0.639 ± 0.015"}
{"sequence": "RRPSRLLGPERI", "protein stability index": "0.717 ± 0.025"}
{"sequence": "RRPTKGGPPTLC", "protein stability index": "0.67 ± 0.032"}
{"sequence": "RRQWVLEQEGGT", "protein stability index": "0.732 ± 0.056"}
{"sequence": "RRRAINIPNNRL", "protein stability index": "0.712 ± 0.016"}
{"sequence": "RRRGRAEREPSS", "protein stability index": "0.689 ± 0.05"}
{"sequence": "RRRGSLGGVRGN", "protein stability index": "0.707 ± 0.058"}
{"sequence": "RRRSGGVIWNRV", "protein stability index": "0.669 ± 0.009"}
{"sequence": "RRRTTTNFKVGH", "protein stability index": "0.672 ± 0.014"}
{"sequence": "RRRVTVYAPVDS", "protein stability index": "0.713 ± 0.015"}
{"sequence": "RRRVWIQQRRKI", "protein stability index": "0.5481 ± 0.0053"}
{"sequence": "RRSLSPPRPRYM", "protein stability index": "0.7 ± 0.018"}
{"sequence": "RRSTRAGWPGNW", "protein stability index": "0.5 ± 0.1"}
{"sequence": "RRTEHPRTRAAR", "protein stability index": "0.692 ± 0.045"}
{"sequence": "RRTGGEDKHARP", "protein stability index": "0.67 ± 0.02"}
{"sequence": "RRWCVDLAMSFA", "protein stability index": "0.646 ± 0.016"}
{"sequence": "RSCGKAYNLLPL", "protein stability index": "0.683 ± 0.052"}
{"sequence": "RSDEGHDVLCLY", "protein stability index": "0.615 ± 0.083"}
{"sequence": "RSFVEQQCVTYA", "protein stability index": "0.628 ± 0.11"}
{"sequence": "RSGCGVVGVWEE", "protein stability index": "0.668 ± 0.032"}
{"sequence": "RSGGGVARRSYR", "protein stability index": "0.662 ± 0.013"}
{"sequence": "RSGISFGIWVCF", "protein stability index": "0.586 ± 0.048"}
{"sequence": "RSGLVRSLPLLL", "protein stability index": "0.664 ± 0.069"}
{"sequence": "RSGVRWGGGGGG", "protein stability index": "0.711 ± 0.035"}
{"sequence": "RSGWSYRDRGPS", "protein stability index": "0.651 ± 0.082"}
{"sequence": "RSICTEGLDIGC", "protein stability index": "0.659 ± 0.033"}
{"sequence": "RSLGLGGRGFWG", "protein stability index": "0.715 ± 0.099"}
{"sequence": "RSLPPGFPSTLL", "protein stability index": "0.652 ± 0.014"}
{"sequence": "RSMSQKSRIVSF", "protein stability index": "0.67 ± 0.14"}
{"sequence": "RSNVGCDLKQTC", "protein stability index": "0.6556 ± 0.0027"}
{"sequence": "RSPPAVSLVTIP", "protein stability index": "0.6911 ± 0.0052"}
{"sequence": "RSPPLTPPPCPS", "protein stability index": "0.6931 ± 0.005"}
{"sequence": "RSPQPPPSPSSG", "protein stability index": "0.692 ± 0.027"}
{"sequence": "RSQICWFFFQCI", "protein stability index": "0.53 ± 0.036"}
{"sequence": "RSRNAHAPPLAG", "protein stability index": "0.764 ± 0.065"}
{"sequence": "RSRPPVHVAAAL", "protein stability index": "0.673 ± 0.074"}
{"sequence": "RSTFSGSSTLVY", "protein stability index": "0.568 ± 0.0084"}
{"sequence": "RSTIEHILLFFI", "protein stability index": "0.668 ± 0.015"}
{"sequence": "RSVGMFSCRPVW", "protein stability index": "0.698 ± 0.017"}
{"sequence": "RSWSSIASSSTM", "protein stability index": "0.7285 ± 0.0037"}
{"sequence": "RTAKTSARATTL", "protein stability index": "0.705 ± 0.039"}
{"sequence": "RTCRYRRVPAET", "protein stability index": "0.729 ± 0.066"}
{"sequence": "RTEATFKTTPVG", "protein stability index": "0.687 ± 0.013"}
{"sequence": "RTGTIPAPFHHE", "protein stability index": "0.675 ± 0.0074"}
{"sequence": "RTHIKEYKNNKI", "protein stability index": "0.647 ± 0.035"}
{"sequence": "RTNGNIKNVNIE", "protein stability index": "0.684 ± 0.07"}
{"sequence": "RTNNIAKNSKNR", "protein stability index": "0.713 ± 0.058"}
{"sequence": "RTPQPQPVVVRR", "protein stability index": "0.776 ± 0.041"}
{"sequence": "RTPQSPRVSVRN", "protein stability index": "0.6586 ± 0.0027"}
{"sequence": "RTSKSLSKVESW", "protein stability index": "0.6415 ± 0.0031"}
{"sequence": "RTTERLTRWEFG", "protein stability index": "0.686 ± 0.03"}
{"sequence": "RTVRRNPHGRPR", "protein stability index": "0.6832 ± 0.005"}
{"sequence": "RTWLLRTVFPRL", "protein stability index": "0.704 ± 0.024"}
{"sequence": "RVAWAGGGAAGS", "protein stability index": "0.667 ± 0.065"}
{"sequence": "RVEIKNKKKIRT", "protein stability index": "0.696 ± 0.083"}
{"sequence": "RVGGGGGPSGVV", "protein stability index": "0.751 ± 0.029"}
{"sequence": "RVGGGGWPSGVV", "protein stability index": "0.747 ± 0.047"}
{"sequence": "RVGGGSGGEGRG", "protein stability index": "0.6553 ± 0.0043"}
{"sequence": "RVGLGGRPSGGW", "protein stability index": "0.64 ± 0.047"}
{"sequence": "RVGLRGGCGSNG", "protein stability index": "0.725 ± 0.029"}
{"sequence": "RVHRETLLPTGQ", "protein stability index": "0.644 ± 0.036"}
